Drawing on patent EP1244779B1, this text covers Residual Activity (%) for one substance.

Common to all, as to assay: cell-based or functional assay
Experiment [1] has as its target subtilisin 309 variant S99SD + M222S (B. lentus) (UniProt P29600).
Experiment [2] has as its target subtilisin 309 variant S99SD + S99A + T143K (B. lentus) (UniProt P29600).
Experiment [3] addresses subtilisin 309 variant S99SD + S99A + L217LP (B. lentus) (UniProt P29600).
For experiment [4], the target named is subtilisin 309 variant S99SD + S99A + P131T (B. lentus) (UniProt P29600).
Experiment [5] deals with Savinase (subtilisin 309 from B. lentus) (B. lentus) (UniProt P29600).
Experiment [6] concerns the target subtilisin 309 variant A98AI+A98G+S99H+G100S+S101A (B. lentus) (UniProt P29600).
Experiment [7] concerns the target subtilisin 309 variant S99SN (B. lentus) (UniProt P29600).
In experiment [8] the target is subtilisin 309 variant S99SD + S99A + S216SP (B. lentus) (UniProt P29600).
Experiment [9] deals with subtilisin 309 variant S99SE (B. lentus) (UniProt P29600).
For experiment [10], the target named is subtilisin 309 variant S99SD (B. lentus) (UniProt P29600).
The target in experiment [11] is subtilisin 309 variant S99SR + S99T (B. lentus) (UniProt P29600).
Experiment [12] concerns the target subtilisin 309 variant S99SD + S99A + L217F + A228V + A230V (B. lentus) (UniProt P29600).
For experiment [13], the target named is subtilisin 309 variant A98AT + Y167A + R170S + A194P (B. lentus) (UniProt P29600).
In experiment [14] the target is subtilisin 309 variant S99SD + N76D + A194P + A230V (B. lentus) (UniProt P29600).
The target in experiment [15] is subtilisin 309 variant S99SD + S99A + P129PR (B. lentus) (UniProt P29600).
Experiment [16] addresses subtilisin 309 variant S99SD + S99A + A133E (B. lentus) (UniProt P29600).
The target in experiment [17] is subtilisin 309 variant S99SD + S99A (B. lentus) (UniProt P29600).
The target in experiment [18] is subtilisin 309 variant S99SD + S99A + P129PD (B. lentus) (UniProt P29600).
Experiment [19] deals with subtilisin 309 variant S99SQ + S99T (B. lentus) (UniProt P29600).
The target of experiment [20] is subtilisin 309 variant S99SD + S99A + L42LN (B. lentus) (UniProt P29600).
Experiment [21] concerns the target subtilisin 309 variant S99SD + S99A + S216SDP (B. lentus) (UniProt P29600).

Consider “trypsin inhibitor type IV-0 (Ovo-inhibitor) (from UniProt P10184 69-517)”, for which the Residual Activity (%) in [1] was 25%; in experiment [2] it was 23%; in experiment [3], 97%; in experiment [4], 35.6%; in experiment [5] it was below 5%; in experiment [6], 22%. The Residual Activity (%) was 19% in experiment [7]; 29.2% in [8]; 27% in [9]; 25% in experiment [10]; 67.7% in [11]; 12% in [12]. Moreover, the Residual Activity (%) in experiment [13] turned out to be 88%; in experiment [14] it was 18.4%; in experiment [15] it was 21%; in experiment [16], 39%; in experiment [17] it was 27.3%; in experiment [18] it was 50%. For the same substance, the Residual Activity (%) in [19] came to 25%; in experiment [20] it was 69.2%; in [21] it was 35%.
